# The nanobody polyreactivity screen of Harvey et al. (2022)
# Assay: yeast display, Sf9 membrane polyspecificity reagent, FACS + sequencing; frameworks hold sequencing errors
# Summary of the method: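 After 36–48 hours of galactose induction, yeast (Saccharomyces cerevisiae BJ5465) displaying a synthetic nanobody library were stained at 4 °C for 1 hour with 10% biotinylated, detergent-solubilized Sf9 membrane reagent. Streptavidin microbeads enriched the stained cells before FACS sorting into low and high (top ~1%) gates on anti-HA and streptavidin fluorescence. Each clone's polyreactivity label reflects its gate of origin.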
row,Sequence,polyreactivity (PSR sort gate)
1,QVQLVESGGGLVQAGGSLRLSCAASGNIFGRYAMGWYRQAPGKERELVAAINWSGGSTNYADSVKGRFTISRDNAKNTVYLQMNSLKPEDTAVYYCAADYYYSLISNQYKYGQRNFDYWGQGTQVTVSS,low polyreactivity
2,QVQLVESGGGLVQAGGSLRLSCASSGSIFEGYVMGWYRQAPGKERELVAAITTGGGSTYYADSVKGRFTISRDNAKNTVYLQMTSLKPEDTAVYYCAKDYWFGYEYWGQGTQVTVSS,low polyreactivity
3,QVQLVESGGGIVQAGGSLRLSCAASGSILYPYAMGWYRQAPGKERELVAAISRGGSTNYADSVKGRFTISRDNAKNTVYLQMNSLKPEDTAVYYCATAYTRFSQRYEYYVIYWQNDYWGQGTQVTVSS,low polyreactivity
4,QVQLVESGGGIVQAGGSLRLSCAASGRIFWYNAMGWYRQAPGKERELVAGITRSGGRTYYADCVKGRFTISRDNAKNTVYLQMNSLKPEYTAVYYCAAAPYARRDYEYWGQGTQVTVSS,high polyreactivity
5,QVQLVESGGGLVQAGGSLRLSCAASGRIFSAYAMGWYRQAPGKERELVAANSRSGGRTYYADSVKGRFTISRDNAKNTVYLQMNSLKPDDTAVYYCAVLWHGRRPLYKLRTGPEYDYWGQGTQVTVSS,high polyreactivity
6,QVQLVESGGGLVQAGGSLRLSCAASGSIIASNAMGWYRHAPWKERELVAAITNGGRTNYADSVKGRFTISRDNAKNTVYLQMNSMKPEDTAVYYCDALWSRCAGFEYCGQGTQVTVSS,high polyreactivity
7,QVQLVESGGGLVQAGGSLRLSCAASGRTFRTYVMGWYRQAPGKEREFVAGITWSSGSTRYADSVKGRFTISRDNAKNTVYLQMNSLKPEDTAVYYCAASRVHSYNPGYPRYYYWGQGTQVTVSS,high polyreactivity
8,QVQLVESGGGLVQAGGSLRLSCAASGRIFFIYAMGWYRQAPGKERELVAGINRTGGSTYYADSVKGRFTISRDNAKNTVYLQMNSLKPEDTAVYYCAAVSYYASDYRYDYWGQGTQVTVSS,low polyreactivity
9,QVQLVESGGGLVQAGGSLRLSCAASGSTFETNGMGWYRQAPGKERELVAAITSGGSTYYADSVKGRFTISRDNAKNTVYLQMNSLKPEDTAVYYCAAVDGGWAYDPYDYWGQGTQVTVSS,low polyreactivity
10,QVQLVESGGGLVQAGGSLRLSCAASGLIFNRNDMGRYRQAPGKETELVAAISGDGGITYYADSVKGRFTISRDNAKNTVYLQMNSLKPEDTAVYYCNAGFTWGDWYDYWGQGTQVTVSS,low polyreactivity
11,QVQLVESGGGLVQAGGSLRLSCAASGSISYKYVMGWYRQAPGKEREFVASITRIGGSTYYADSVKGRFTISRDNAKNTVYLQMNSLKPEDTAVYYCARDYDYWSWPSAYDYWGQGTQVTVSS,low polyreactivity
12,QVQLVESGGGLVQAGGSLRLSCAASGFIFSTYAMGWYRQAPGKERELVAAITTSGSSTYYADSVKGRFTISRDNAKNTVYLQMNSLKPEDTAVYYCNAKYGYSAATDRGNYWGQGTQVTVSS,high polyreactivity
13,QVQLVESGGGLVQAGGSLRLSCAASGSIIQYYAMGWYRQAPGKERELVASITWSGGSTYYADSVKGRFTISRDNAKNTVFLQMNSLKPEDTAVYYCAKRLYLKTWAASTADDYWGQGTQVTVSS,low polyreactivity
14,QVQLVESGGGLVQAGGSLRLSCAASGRIFYRYARGWYRQAPGKERELVAAITRGGRTNYADSVKGRFTISRDNAQNTVYLQMNSLKPEDTAVYYCRPLWYGFDYWGQGTQVTVSS,high polyreactivity
15,QDQHVESGGGLVQAGGSLRLSCDASGFIFNQNARGWYRQAPGKERELVAAISQRGGRTYYADSVKGRFTISRDNAKNTVYLQMNSLKPEDTAVYYCAAYGPFRFDVDTYDYWGQGTQVTVSS,low polyreactivity
16,QVQLVESGGGLVQAGGSLRLSCAASGRTFERNAMGWYRQAPGKERELVAAITSGDGTSYADSVKGRFTISRDNAKNTVYLQMNSLKPEDTAVYYCAVSKGVFLVRGYAYHVGYWGQGTQVTVSS,low polyreactivity
17,QVQLVESGGGLVQAGGSLRLSCAASGITFWKYAMGWYRQAPGKERELVAVITKSGGSTYYADSVKGRFTISRDNAKNTVYLQMNSLKPEDTAVYYCAASSETYYYGYEYWGQGTQVTVSS,high polyreactivity
18,QVQLVESGGGLVQAAGSLRLSCAASGITFVTYDRGWYRQAPGKEWELVAAISRSGVRTYYADSVKWRFTISRDNAKNTVYLQMNSLKPEDTAVYYCAAERKNKYDYWGLGTQVTVSS,high polyreactivity
19,QVQHVESGAGLVQAGGSLRLSCAASGNTINFYAMGWYRQPPGKESELVASITSGGGTNYADSVKGRFTISRDNAKNTVYLQMNSLKPEDTAVYYCAAQFYDHFRYHFDWGQGTQVTVSS,low polyreactivity
20,QVQLVESGGGLVQAGGSLLLSCAASGGTFRVYAMGSYRQAPVKERELVAAITWRGGRTYYGDSVKGRFTISRDHAKNTVYLQMKRVKPEDTAVYFCAADRYGDLYDYWGQGTQVTVSS,high polyreactivity
21,QVQLVESGGGLVQAGGSLRLSCAASGSTFRPNAMGWYRQAPGKERELVAAITSGGSTYYADSVKGRFTISRDNAKNTVYLQMNSLKPEDTAVYYCNKDKFWSYPVQVNLDYWGQGTQVTVSS,low polyreactivity
22,QVQLVESGGGLVQAGGSLRLSCAASGSIFDGSAMGWYRQAPGKERELVASISSGGSTNYADSVKGRFTISRDNAKNTVYLQMNSMKPEDTAVYYCAAEWVWYKWEFEYWGQGTQVSVSS,high polyreactivity

row,Sequence,polyreactivity (PSR sort gate)
1,QVQLVESGGGLVQAGGSLRLSCAASGRIFGSYVMGWYRQAPGKEMELVATISWSGGSTYYADSVKGRFTISRDNAKNTVYLQMNSLKPEDTAVYYCAAVSRYSHSPYHYDYWGQGTQVTVSS,high polyreactivity
2,QVQLVESGGGLVQAGGSLRLSCAASGITFADNAMGWYRPAPGKERELVAAITSGGSTYYADSVKGRFTISRDNAKNTVYLQMNSLKPEDTAVYYCNVRVRRLFYWARLVAYDYWGQGTQVTVSS,high polyreactivity
3,QVQLVESGGGLVQAGGSLRLSCAASGSNVYYAMGWYRQAPVKERELVAAINTSGGSTYYADSVKGRFTISRDNAKNTVYLQMNSLKPEDTAVYYCAAVYVGYITGFKRGYWGQGTQVTVSS,high polyreactivity
4,QVQLVESGGGIVQAGGSLRLSCAASGRICIINAMGWYRQATGKERELVAAISTSGGRTYYADSVKGRFTISRDNAKNTVYLQKNSLKPVDTAVYYCNAGRGYRYYRSVGSSPYEYWGQGTQVTVSS,high polyreactivity
5,QVQLVESGGGLVQAGGSLRLSCAASGRIFGGYAMGWYRQAPGKERELVASITARGTSTYYADTVKGRFTISRDNAKNTVYLQMNRLKPEDTAVYYCNALYRIYRNQWFISNYGYYYWGQGTQVTVSS,low polyreactivity
6,QVQLVESGGGLVQAGGSLRLSCAASGFIFDQNAMGWYRQAPGKERELVAAISKRGGSTYYADSVKGRFTISRDTAKNTVYLQMNSLKPEDTAVYYCATRSWGPYYYGYNHWGQGTQVTVSS,high polyreactivity
7,QVQLVESGGGLVQAGGSLRLSCAASGSIFSPNAMGWYRQAPGKERELVAAISRGDSTYYADSVKGRFTISRDNAKNTVYLQMNSLKPEDTAVYYCAATYLRRPVSGAYRSEYNYWGQGTQVTVSS,high polyreactivity
8,QVQLVESGGGLVQAGGSLRLSCAASGRTFWRYAMGWYRQAPGKERELVARISSGGSTYYADSVKGRFTISRDNAKNTVYLQINSLKPEDTAVYYCAVLSRHRRVPWYRYNYWGQGTQVTVSS,low polyreactivity
9,QVQLVESGGGLDQAGGSLRLSCAASARIFAAYAMGWYRQAPGKEREFVAAITTAGSTHYADSVKGRFTISRDNAKYTVYLQMNSLKPEDTPVYYCAADGIARAYVLFDAYDFLYDYWGQGTQVTVSS,low polyreactivity
10,QVQLVESGGGLVQAGGSLRLSCAASGRTFHYYVRGWSRQAPGKERELVAAISRSGGNTYYADSVKGRFTISRDNAKNTVYLQMNSLKPEDTAVNYCAAALSAYVKWDYYYWGQGTQVTVSS,low polyreactivity
11,QVQLVESCGGLVQAGGSLRLSCAASGLIFPVYAMGWYRQAPGKEREFVASIWRGGTTYYADSVKGRFTISRDNEKNTVYLQMNSLKPEDTAVYYCAARDYPRGLVFPFTKYDYWGQGTQVTVSS,high polyreactivity
12,QVQLVESGGGLVQAGGSLRLSCAASGSIFGPYAMGWYRQAPGKERELVAAISTRGGRTYYADSVKGRFTISRDNAKNTVYLQMISLKPEDTAVYYCNDRRSDSRSYDYWGQGTQVTVSS,high polyreactivity
13,QVQLVESGGGLVQAGGSLRLSCAASGRTFPLNAMGWYRQAPGKERELVAAITWSGGRTYYADSVKGRFTISRDNAKNTVYLQMNSLKPEDTAVYYCATDRYAYKLYDYWGQGTQVTVSS,low polyreactivity
14,QVQLVESGGGLVQAGGSLRLSCAASGSTFSYYAMGWYRQAPGKERELVAAITSSGGSTYYADSVKGRFTISRDNAKNTVYLQMNSLKPEDTAVYYCNTAYHVPYDYWGQGTQVTVSS,low polyreactivity
15,QVQLVESGGGLVQAGGSLLLSCAASGFTFDYYAMGWYRQAPGKERELVAAITWSGGSTYYADSVKGRFTISRDNAKNTVYLQMNSLKPEDTAVYYCNAYYYHLYRGSTSYDYWGQGTQVTVSS,low polyreactivity
16,QVQLVESGGGLVQAGGRLRLSCAASGSTIRRYAMRWYRQAPGKERELVAAIRQRGTSTYYADSVKGRFTISRDNAKNTVYLQMNSLKPEDTAVYYCAADSYSSRGNYWGQGTQVTVSS,high polyreactivity
17,QVQRVESGGGLVQAGGSLRLSCAASGSTFYRYAMVWYRQAPGKERELVATISGGGRTNYADSVKGRFTISRDNAKNTVYLQMNSLKPEDTAVYYCAVDSSSPYDYWGQGTQVTVSS,high polyreactivity
18,QVQLVESGGGLVQAGGSLRLSCAASGLTFVGNAMGWYRQAPGKERELVAAISRSGGRTYYADSVKGRFTISRDNAKNTVYLQMNSLKPEDTAVYYCAAPYRSYDWYDYWGQGTQVTVSS,high polyreactivity
19,QVQLVESGGGLVQAGGSQRLSCAASGSIFLRYAMGWYRQAPGKERELVAAITSSGGSTYYADSVKGRFTISRDNAKNTVYLQMTSLKPEDTAVYYCNRYSYLFPYYWKYDYWGQGTQVTVSS,high polyreactivity
20,QVQIVESGGGLVQAGGSLRLSCAASGFIFDNNAMGWSRQAPWKESELFATITSGGRTNYADSVKGRFTISRDNAKNTVYLRMNCLKPEDTAVYYCAAFYYLCSRRKTRDYWGQGTQVTVSS,low polyreactivity
21,QVQLVESGGGLVQAGGSLRLTCAASGRTFTLNAMGWYRQAPGKERELVADIRRRGGSTYYADSVKGRFTISRDNAKNTVYVQMNSRKAADTAVYYCATHGRWYKLPTGWRPYDYWGLGTQVTVSS,high polyreactivity
